One protein from paper PMC9205463 can be followed below.

Substrate in the data set: Nc1ncnc2c1ncn2[C@@H]1O[C@H](COP(=O)(O)OP(=O)(O)OP(=O)(O)O)[C@@H](O)[C@H]1O
Kind of data set: purified protein. As to conditions: M13 ssDNA effector; ATP 0-4 mM.

B1: DDX41 (Homo sapiens) (protein)
chain: MEESEPERKRARTDEVPAGGSRSEAEDEDDEDYVPYVPLRQRRQLLLQKLLQRRRKGAAEEEQQDSGSEPRGDEDDIPLGPQSNVSLLDQHQHLKEKAEARKESAKEKQLKEEEKILESVAEGRALMSVKEMAKGITYDDPIKTSWTPPRYVLSMSEERHERVRKKYHILVEGDGIPPPIKSFKEMKFPAAILRGLKKKGIHHPTPIQIQGIPTILSGRDMIGIAFTGSGKTLVFTLPVIMFCLEQEKRLPFSKREGPYGLIICPSRELARQTHGILEYYCRLLQEDSSPLLRCALCIGGMSVKEQMETIRHGVHMMVATPGRLMDLLQKKMVSLDICRYLALDEADRMIDMGFEGDIRTIFSYFKGQRQTLLFSATMPKKIQNFAKSALVKPVTINVGRAGAASLDVIQEVEYVKEEAKMVYLLECLQKTPPPVLIFAEKKADVDAIHEYLLLKGVEAVAIHGGKDQEERTKAIEAFREGKKDVLVATDVASKGLDFPAIQHVINYDMPEEIENYVHRIGRTGRSGNTGIATTFINKACDESVLMDLKALLLEAKQKVPPVLQVLHCGDESMLDIGGERGCAFCGGLGHRITDCPKLEAMQTKQVSNIGRKDYLAHSSMDF
B1: the Km worked out at 200 µM and the kcat turned out to be 953.6 ± 45.5 s⁻¹.

The term Km denotes the concentration of substrate that gives half-maximal velocity. Broadly, the kcat is the maximal rate divided by the concentration of active sites.
